From paper PMC3985956 (Biochemistry, 2014) come the findings set out here.

The data set deals with the molecule itself. As to the kind of experiment: electron cryotomography with subvolume averaging.

B1: CheA, full length, purified, for reconstitution with Tsr membranes (enzyme)
chain: MSMDISDFYQTFFDEADELLADMEQHLLVLQPEAPDAEQLNAIFRAAHSIKGGAGTFGFSVLQETTHLMENLLDEARRGEMQLNTDIINLFLETKDIMQEQLDAYKQSQEPDAASFDYICQALRQLALEAKGETPSAVTRLSVVAKSEPQDEQSRSQSPRRIILSRLKAGEVDLLEEELGHLTTLTDVVKGADSLSAILPGDIAEDDITAVLCFVIEADQITFETVEVSPKISTPPVLKLAAEQAPTGRVEREKTTRSNESTSIRVAVEKVDQLINLVGELVITQSMLAQRSSELDPVNHGDLITSMGQLQRNARDLQESVMSIRMMPMEYVFSRYPRLVRDLAGKLGKQVELTLVGSSTELDKSLIERIIDPLTHLVRNSLDHGIELPEKRLAAGKNSVGNLILSAEHQGGNICIEVTDDGAGLNRERILAKAASQGLTVSENMSDDEVAMLIFAPGFSTAEQVTDVSGRGVGMDVVKRNIQKMGGHVEIQSKQGTGTTIRILLPLTLAILDGMSVRVADEVFILPLNAVMESLQPREADLHPLAGGERVLEVRGEYLPIVELWKVFNVAGAKTEATQGIVVILQSGGRRYALLVDQLIGQHQVVVKNLESNYRKVPGISAATILGDGSVALIVDVSALQAINREQRMANTAA
For B1, the binding result was “binds”.
